# Results from the nanobody polyreactivity screen of Harvey et al. (2022).
# Experiment: yeast display, Sf9 membrane polyspecificity reagent, FACS + sequencing; frameworks hold sequencing errors
# Method in brief: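 Genes from sorted yeast were amplified by colony PCR, read by MiSeq 2 × 250 sequencing and filtered on CDR length. These cells carried a synthetic nanobody library in Saccharomyces cerevisiae BJ5465 and were sorted by FACS into low and high (top ~1%) gates on anti-HA and streptavidin fluorescence. Polyreactivity is labelled according to the gate of origin.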
row,Sequence,polyreactivity (PSR sort gate)
1,QVQLVESGGGLVQAGGSLRLSCAASGFIFRKYGMGWYRQAPGKERELVAAIRFTGGSTRYADSVKGRFTISRDNAKNTVYLQMNSLKPEDTAVYYCNADRVYVRGRFTYDYWGQGTQVTVSS,low polyreactivity
2,QVQLVESAGGLVQAGGSLRLSSDASGFTFYRYAIGWYIQAPGKEREFVAAISWRGTSTYYADSVKGRFKISRDNANNTVYLQMNSLKPEETAVYYCTARRDICWGYHMDYWGQGTQVTVSS,high polyreactivity
3,QVQLEESGGGLVQAGGSLRLSCAASGITFVDYDMGWYRQATGKERELVAAITTGSSTYYADSVKGRFTISRDNAKNTVYLQMNSLKPEDTAVYYCARDLEYDYYQQWSYGYWGQGTQVTVSS,low polyreactivity
4,QIQLEESVGGLVQAGGTLRLSCASSGFTFYINVMGWDRQAPGKERELVAAISGTGGTNYADSVKGRFTISRDNAKNTVYLQMNSLKPEDTAVYYCARDYYVYSTGHVPLDYWGQGTQVTVSS,low polyreactivity
5,QVQLVESGGGLVQAGGSLRLSCAASGSIFYHNAMGWYRQAPGKERELVATISWRSASTYYADSVKGRFRISRDNAKNTVYLQMNSLKPEDTAVYYCAAKLQYRQYYYRYGYDYWGQGTQVTVSS,high polyreactivity
6,QVQLVESGGGLVQAGGSLRLSCAASGFTFPFYTMGWYRQAPGKERELVAAISRGGSTNYADSVKGRFTISRDNAKNTVYLQMNSLKPEDTAVSYCNKRYYRDLIGYYWGQGTQVTVSS,high polyreactivity
7,QVQLVESGGGLVQAGGSLRLSCAASGRTFAENAMGWYRQAPGKESELVAAISETGSRTYYADSVKGRFTISRDNAKNTVYLQMNSLKPEDTAVYYCAARSWHGVLWSYRHDYWGQGTQVTVSS,low polyreactivity
8,QVQLEESGGGLVQAGGSLRLSCAASGRIYRYYDMGWYRQAPGKEREFVAAITRSGAITYYADSLKGRFTISRDNAKNTVYLQMNSLKPEDTAVYYCAAVDDDYSIVWYDYWGQVTQVTVSS,low polyreactivity
9,QVQLVESGGGLVQAGGSLRLSCAASGIIFDTYAMGWYRQAPGKERELVAAISRSGDTTYYADSVKGRFTISRDNAKNTVFLQMNSLKPEDTAVYYCNARQSRWDKYDYWGQGTQVTVSS,high polyreactivity
10,QVQLVESGGGLVQAGGSLRLSCAASGGTFIYYAMGWYSQAPGKERELVAAISSGGSTYYADSVKGRFTISRDNAKNTVYLQMNSLKPEDTAVYYCAKRRAVQIVDLEYWRQGTQVTVSS,low polyreactivity
11,QVQLVESGGGLVQAGGSLRLSCAASGSKFYTNVMGWYRQAPGKERELVARIDSGGSTNYADSVKGRFTISRDNAKNTVYLQMNSLKPEDTAVYYCAADWYIYDYWGQGTQVTVSS,low polyreactivity
12,QVQLVESGGGLVQAGGSLRLSCAASGRIFGRYAMGWYRQAPGKERGLVAAITRRGGNTYYADSVKGRFTISRDNAKNTVYLQMNSLKPEDTAVYYCNDDTSTYAIRGQWSWYDYWGQGTQVTVSS,high polyreactivity
13,QVQLVESGGGLVQAGGSLRLSCAASGSTFDGYAMGWSRQAPGKERELVGSITRRGGSTYYADSVKGRFTISRDNAKNTVYVQMNSLKPEDTAVYYCAVLGRGVSGYTWPYDYWGQGTQVTVSS,high polyreactivity
14,QVQHVESGGGLVQAGGSLRLSSAASGRTFGIYAMGWSRQAPGKERELVATISWRGGSTYYADSLKGRFTISRDNSKNTVYLQMNSLKPEDTAVDYCAAGYYPYWGQGTQVTVSS,low polyreactivity
15,QVQLVESAGGLVQAGGSLRLSCAASGSTFPFYAMGWYRPAPGKERELVAAISASGVRTYYADSVKGRFTISRDNAKNTVYLQMNSLKPEDTAVDYCNRVYSTSRITQYEFDYWGQGTQVTVSS,low polyreactivity
16,QVQLVESGGGLVQAGGSLRISCAASGNSFVSNVMGWYREAPGKERELVAAISSGGRTYYADSVKGRFTISRDNAKNTVYLQMNSLKPEDTAVYYCAASYKSKYLGGGEYWGQGTQVTLSS,high polyreactivity
17,QVQLVESGGGLVQAGGSLRLSCAASGGTIAYNAMGWYRQAPGKERELVAAISSSGGRTYYADSVKGRFTISRDNAKNTVYLQMNSLKPEDTAVYFCATPVNNGFDYWGQGTQVTLSS,high polyreactivity
18,QVQLVESGGGLVQAGGSLRLSCAASGSTFYVNVMGWYRQAPGKERELVADISNDGSTHYADSVKGRFTISRDTAKNTVYLQMNSLKPEDTAVYYCNAEEIDEASYAYPPLEYDYWGQGTQVTVSS,low polyreactivity
19,QVQLVESGGGLVQAGGSLRLSCAASGFICGYYAMGWYRQAPGKERELVADISRGGNTNYAESVKGRFTISRDNAKNSVYLQMNSLKPEDTAVYYCARYRRGKMDYWGQGTQVTVSS,high polyreactivity
20,QVQLVESGGGLVQAGGSLRLSCAASGSTFVSYAMGWYRQAPGKERELVAAISISDSSTYYADSVKGRFTISRDNAKKTVYLQMNSLKPEDTAVYYCNRYDYWGQGTQVTVSS,low polyreactivity
21,QVQLQESGGGLVQAGGSLRLSCAASGSISRYYDMGWYRQAPGKELEFVAGISGGAITYYADSVKGRFTISRDNAKNTVYLQMNSLKPEDTAVYYCAADTGVYQYHSYWGQGTQVTVSS,low polyreactivity

row,Sequence,polyreactivity (PSR sort gate)
1,QVQLVESVGGLVQAGGSLRLSCAASGSILAVNAMGWYRQAPGKERELVAAISSRGGSTSYADSVKGRYTISRDNAKNTVYLQMNSLKPEDTAVYYCAVRAVRRLRTSVPVRFYYWGQGTQVTVSS,high polyreactivity
2,QVQLVESGGGLVQAGGSLRLSCAASGFTFYLYAMGWYRQAPGKERELVASISSGGRTKYADSVKGRFSISRDNAMNTVYLQMNSLKPEDTAVYYCAARGYFTRQFTPYDYWGQGTQVTVSS,high polyreactivity
3,QVQLVESGGGLVQAGGSLRLSCAASGITFGYYAMGWYRQAPGKERELVAAITWSGSSTYYADSVKGRFTISRDNAKNTVYLQMNSLKPEDTAVYYCAAEYSSHYAVWRGHSGYWGQGTQVTVSS,high polyreactivity
4,QVQLVESGGGLVQAGGSLRLSCAASGRIFKRYAMGWYRQAPGKERELVASITTSGDSTYYADSVKGRFTISRDNAKNTVYLQMNSLKPEDTAVYYCAARSYRGRRYDYWGQGTQVTVSS,high polyreactivity
5,QVQLVESGGGLVQAGGSLRLSCAASGSTFSPYALGWYRQATGKERELVAAISASGVGTYYADSVKGRFTISRDYAKNPVYLQMNRLIPEDTAVYYCCRDYGWDISKGRYGYWGQGTQVTVSS,low polyreactivity
6,QVQLVESGGGLVQAGGSLRLSCAASGITIVNYVMGWYRQAPGKERELVAAISIGGGTYYADSVKGRFTISRDNAKNTVYLQRNSLKPEDTAVYYCNATFGGLSFYIGVYVTGYDYWGQGTQVTVSS,low polyreactivity
7,QVQLVEAGGGLGQAGGSLRLSCAASGRILTPYARGWYRQAPGKERELVAANTSGGRTHYAHSVKGRFTMSRDNAKNTVYLQMNSLTPEDTAVYYCAARVRTGWWVRDDYWGQGTQVTLSS,high polyreactivity
8,QVQLVESGGGLVQAGGSLSLSCAASGSIFGGYTMGRKRQAPGKERELVAAISSVGSTYYADSVKGRFTISRDNAKNTVYLQMNSLKTEDTAVYYCATSTYAYRRNSNYYSLPRFGYWGQGTQVSVSS,high polyreactivity
9,QVQLVESGGGLVQAGGSLRLSCAASGRTFFSNAMGWYRQAPGKERELVAAISNGDNTYYADSVKGRFTISRDNAKNTVYLQMNSLKPEDTAVYYCAKDYRWVWRKYGYWGQGTQVTVSS,low polyreactivity
10,QVQLVESGGGLVQAGGSLRLSCAASGRTFKYNTMGWYRQAPGKERELVAVISRSGGRTYYADSVKGRFTISRDNAKNTVYLQMNSLKPEDTAVYYCAKGIPYADPQSAYDDYWGQGTQVTVSS,high polyreactivity
11,QVQLVESGGGLVQAGGSLRLSCAASGSIFTGYTMGWYRPAPGKEREFVAAIRATGGSTYYADSVKGRFTISRDNAKNTVYLQMNSLKPEDTAVYYCAVRSGVGSVRKRYGYWGQGTQVTVSS,high polyreactivity
12,QVHLVESGGGLFQAGGSLRISCAASGSIFRFNVMGWYRQAPGKERELVAAITRGDSTNYADSVKGRFTISRDNAKNTVYLQMNSLKPEVTAVYYCAAGFYYYLRDHDYWGQGTQVTVSS,low polyreactivity
13,QVQLVESGGGLVQAGGSLRLSCAASGSIFYHYAMGWYRQAPGKEREFVAAITRRGTSTYYADSVKGRFTISRDNAKNTVYLQMNSLKPEDTAVYYCAARYGPNMDYCGQGTQVTVSS,high polyreactivity
14,QVQHVESGGGLVQAGGSLRLSCAASGRTFRRNVMGWYRQAPGKERELVAAISSGANTNYADSVKGRFTISRDNAKNTVYLQMNSLKPEDTAVYYCNARWQEPLKYDYWGQGTQVTVSS,low polyreactivity
15,QVQLVESGGGLVQAGGSLRLSCAASGSIFHIYAIGWYRQAPGKERELVAAISWRGDSTSYADSVKGRFTISRDNAKNTVYLQMNSLKPEDTAVYYCARGYGGYRGYYAKRFGYWGQGTQVTVSS,high polyreactivity
16,QVQLVESGGGLVQAGGSLRLSCAASGSPFSRNAMGWYRPAPGKEREMVAAISYSGGSTYYADSVKGRFTISRDNAKNTVYLQLNSLKPEDTAVYYCNTYIVNYSGQEMVYWGQGTQVTVSS,high polyreactivity
17,QVQLVESGGGLVHAGGSLGLICAASGFIFYRYAMGWYRQAPGKERELVAAISWSGGTTYYADSVKGRFSISRDNAKNTVYLQMNSLKPEDTAVYYCAATRLRTEYYWGHGTQVTVSS,high polyreactivity
18,QVQLVESGGGLVQAGGSLRLSCASSGSTFRRNAMGWYRQAPGKERELVAAITWRGTSTYYADSVKGRFTISRDNAKNTVYLQMNSLKPEDTAVYYCNAVYNPYTTYSLSAYDYWGQGTQVTVSS,high polyreactivity
19,QVQLVDSGGGLVQAGGSLPLSCAASGSILLPYAMGWYRQAPGKERELVAALSQRGGSTYYADSVKGRFTISRDNAKNTVYLQMNSLKPEDTAVYYCNAVGGEHTPSQAFAGYDYWGQGTQVTVSS,low polyreactivity
20,QVQLVESGGGLFQAGGSLRLSCAASGSIFDVNVMGWYRQAPGKERELVASINISGASTYYADSVTGRFTISRDNAKNTVYLQMNSLKPEDTAVYYCAVTYGVPSFRYGYWGQVTQVTVSS,low polyreactivity
